Results reported in US20050222029A1 (MYRIAD GENETICS, published 2005).

T1: Tumor Suppressor (TSG101) 240-391 (human, UniProt Q99816 240-390)
T1 construct: range 240-391; bait (Gal4 DBD fusion); also called TSG101 240-390
T1 sequence (looked up): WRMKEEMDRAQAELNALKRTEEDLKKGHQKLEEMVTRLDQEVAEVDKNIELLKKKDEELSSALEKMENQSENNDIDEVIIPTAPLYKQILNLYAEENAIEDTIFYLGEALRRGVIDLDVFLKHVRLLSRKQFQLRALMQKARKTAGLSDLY

B1: Intersection 1 437-584 (other, human, UniProt Q15811 437-584, looked up)
chain: AKRELERQRQLEWERNRRQELLNQRNKEQEDIVVLKAKKKTLEFELEALNDKKHQLEGKLQDIRCRLTTQRQEIESTNKSRELRIAEITHLQQQLQESQQMLGRLIPEKQILNDQLKQVQQNSLHRDSLVTLKRALEAKELARQHLRD
notes: prey (Gal4 AD-HA fusion); also called Intersectin 1; ITSN1
B2: Keratin 5 384-475 (other, human, UniProt P13647 384-475, looked up)
chain: HEISEMNRMIQRLRAEIDNVKKQCANLQNAIADAEQRGELALKDARNKLAELEEALQKAKQDMARLLREYQELMNTKLALDVEIATYRKLLE
notes: prey (Gal4 AD-HA fusion)
B3: Keratin 5 347-485 (other, human, UniProt P13647 347-485, looked up)
chain: EEIANRSRTEAESWYQTKYEELQQTAGRHGDDLRNTKHEISEMNRMIQRLRAEIDNVKKQCANLQNAIADAEQRGELALKDARNKLAELEEALQKAKQDMARLLREYQELMNTKLALDVEIATYRKLLEGEECRLSGEG
notes: prey (Gal4 AD-HA fusion)
B4: GTPase-activiating protein 1 1404-1553 (other, human, UniProt P46940 1404-1553, looked up)
chain: LTEILETPATSEQEAEHQRAMQRRAIRDAKTPDKMKKSKSVKEDSNLTLQEKKEKIQTGLKKLTELGTVDPKNKYQELINDIARDIRNQRRYRQRRKAELVKLQQTYAALNSKATFYGEQVDYYKSYIKTCLDNLASKGKVSKKPREMKG
notes: prey (Gal4 AD-HA fusion); also called IQGAP1; IQGAP
B5: GTPase-activiating protein 1 1439-1567 (other, human, UniProt P46940 1439-1567, looked up)
chain: KKSKSVKEDSNLTLQEKKEKIQTGLKKLTELGTVDPKNKYQELINDIARDIRNQRRYRQRRKAELVKLQQTYAALNSKATFYGEQVDYYKSYIKTCLDNLASKGKVSKKPREMKGKKSKKISLKYTAAR
notes: as for B4
B6: Intersection 1 436-547 (other, human, UniProt Q15811 436-547, looked up)
chain: AAKRELERQRQLEWERNRRQELLNQRNKEQEDIVVLKAKKKTLEFELEALNDKKHQLEGKLQDIRCRLTTQRQEIESTNKSRELRIAEITHLQQQLQESQQMLGRLIPEKQI
notes: as for B1
B7: GTPase-activiating protein 1 1406-1547 (other, human, UniProt P46940 1406-1547, looked up)
chain: EILETPATSEQEAEHQRAMQRRAIRDAKTPDKMKKSKSVKEDSNLTLQEKKEKIQTGLKKLTELGTVDPKNKYQELINDIARDIRNQRRYRQRRKAELVKLQQTYAALNSKATFYGEQVDYYKSYIKTCLDNLASKGKVSKK
notes: as for B4
B8: Keratin 5 349-475 (other, human, UniProt P13647 349-475, looked up)
chain: IANRSRTEAESWYQTKYEELQQTAGRHGDDLRNTKHEISEMNRMIQRLRAEIDNVKKQCANLQNAIADAEQRGELALKDARNKLAELEEALQKAKQDMARLLREYQELMNTKLALDVEIATYRKLLE
notes: prey (Gal4 AD-HA fusion)
B9: Keratin 8 293-394 (other, human, UniProt P05787 293-394, looked up)
chain: AGKHGDDLRRTKTEISEMNRNISRLQAEIEGLKGQRASLEAAIADAEQRGELAIKDANAKLSELEAALQRAKQDMARQLREYQELMNVKLALDIEIATYRKL
notes: prey (Gal4 AD-HA fusion)
B10: Keratin 5 379-452 (other, human, UniProt P13647 379-452, looked up)
chain: LRNTKHEISEMNRMIQRLRAEIDNVKKQCANLQNAIADAEQRGELALKDARNKLAELEEALQKAKQDMARLLRE
notes: prey (Gal4 AD-HA fusion)
B11: Keratin 5 325-446 (other, human, UniProt P13647 325-446, looked up)
chain: LSMDNNRNLDLDSIIAEVKAQYEEIANRSRTEAESWYQTKYEELQQTAGRHGDDLRNTKHEISEMNRMIQRLRAEIDNVKKQCANLQNAIADAEQRGELALKDARNKLAELEEALQKAKQDM
notes: prey (Gal4 AD-HA fusion)
B12: GTPase-activiating protein 1 1439-1565 (other, human, UniProt P46940 1439-1565, looked up)
chain: KKSKSVKEDSNLTLQEKKEKIQTGLKKLTELGTVDPKNKYQELINDIARDIRNQRRYRQRRKAELVKLQQTYAALNSKATFYGEQVDYYKSYIKTCLDNLASKGKVSKKPREMKGKKSKKISLKYTA
notes: as for B4
B13: Keratin 5 335-473 (other, human, UniProt P13647 335-473, looked up)
chain: LDSIIAEVKAQYEEIANRSRTEAESWYQTKYEELQQTAGRHGDDLRNTKHEISEMNRMIQRLRAEIDNVKKQCANLQNAIADAEQRGELALKDARNKLAELEEALQKAKQDMARLLREYQELMNTKLALDVEIATYRKL
notes: prey (Gal4 AD-HA fusion)

Target: T1, Tumor Suppressor (TSG101) 240-391
Test: yeast two-hybrid

Row | Binder | binding result
1 | B1 | binds
2 | B2 | binds
3 | B3 | binds
4 | B4 | binds
5 | B5 | binds
6 | B6 | binds
7 | B7 | binds
8 | B8 | binds
9 | B9 | binds
10 | B10 | binds
11 | B11 | binds
12 | B12 | binds
13 | B13 | binds
